In assay [1] the target is human prolactin (PRL) (human) (UniProt P01236). Nature of the assay: ELISA: dimeric PRLR (3.38 pM to 200 nM) on plate-coated human PRL (1 µg/mL), HRP anti-Fc-gamma detection.
In assay [2] the target is mouse PRLR construct with an HA tag on HEK293/mPRLR cells (mouse) (UniProt Q08501). Briefly: FACS on HEK293/mPRLR cells.

2 molecules from US20180185504A1 can be followed below.

Chain of mouse PRLR construct with an HA tag on HEK293/mPRLR cells (mouse) (Q08501 20-608): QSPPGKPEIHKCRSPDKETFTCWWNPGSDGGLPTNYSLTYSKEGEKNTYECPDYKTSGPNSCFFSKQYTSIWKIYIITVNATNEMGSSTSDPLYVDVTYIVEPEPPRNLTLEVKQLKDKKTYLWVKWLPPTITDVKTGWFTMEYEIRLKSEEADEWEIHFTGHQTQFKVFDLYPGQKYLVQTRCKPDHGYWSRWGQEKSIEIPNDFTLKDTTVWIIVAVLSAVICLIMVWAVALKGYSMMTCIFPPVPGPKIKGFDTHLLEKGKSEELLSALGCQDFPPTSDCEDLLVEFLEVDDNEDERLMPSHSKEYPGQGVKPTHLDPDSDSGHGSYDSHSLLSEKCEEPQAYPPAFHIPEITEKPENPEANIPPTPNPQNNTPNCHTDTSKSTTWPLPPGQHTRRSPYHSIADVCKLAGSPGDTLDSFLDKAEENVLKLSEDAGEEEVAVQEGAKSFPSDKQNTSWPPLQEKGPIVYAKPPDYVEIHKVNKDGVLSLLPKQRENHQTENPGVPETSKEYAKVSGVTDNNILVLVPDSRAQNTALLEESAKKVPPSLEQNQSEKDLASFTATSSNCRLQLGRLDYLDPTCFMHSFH
Chain of human prolactin (PRL) (human) (P01236 29-227 limits assumed): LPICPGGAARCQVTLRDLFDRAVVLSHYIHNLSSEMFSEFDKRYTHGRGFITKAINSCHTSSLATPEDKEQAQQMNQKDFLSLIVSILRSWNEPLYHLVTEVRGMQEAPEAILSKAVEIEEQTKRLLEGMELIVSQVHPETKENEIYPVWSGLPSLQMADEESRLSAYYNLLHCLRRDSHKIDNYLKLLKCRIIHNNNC

B1: dimeric form of human PRLR (Example 12 ELISA) (Fc fusion, part only; not given: Dimerising Fc part, part only)
chain, part: QLPPGKPEIFKCRSPNKETFTCWWRPGTDGGLPTNYSLTYHREGETLMHECPDYITGGPNSCHFGKQYTSMWRTYIMMVNATNQMGSSFSDELYVDVTYIVQPDPPLELAVEVKQPEDRKPYLWIKWSPPTLIDLKTGWFTLLYEIRLKPEKAAEWEIHFAGQQTEFKILSLHPGQKYLVQVRCKPDHGYWSAWSPATFIQIPSDFTMND
Usually EC50 stands for the concentration that produces a half-maximal response. Read a low EC50 as higher potency in that assay. For the molecule B1, the EC50 in assay [1] stood at 4.9 nM.

B2: H1H6801P (antibody, human IgG1, V domains shown)
VH: QVQLQQSGPGLVKPSQTLSLTCVISGDSVSSNTAWNWVRQSPSRGLEWLGRTYYRSKWYNDYAVSVKSRITINPDTSKNQFSLLMNSVTPEDTAVYYCARVVRGLNYFDYWGQGTLVTVSS
VL: DIVMTQSPDSLAVSLGERATINCKSSQSVLYNSNNKNYLAWYQQKPGQPPKLLIYWSSSRESGVPDRFSGSGSGTDFTLTISGLQAEDVAIYYCQQYSTIPYTFGQGTKLEIK
As to B2, the FACS Cell Binding (Fold Above Background) in assay [2] amounted to 56 fold.
